Reference: article PMC7884711, “Identification of efficient prokaryotic cell-penetrating peptides with applications in bacterial biotechnology” (Communications Biology, 2021)
Read-outs that look alike come from different tables or passages of the source. Where no end group is shown, it is not given here.

Legend:
Assay type in all cases: cell-based, Escherichia coli
E. coli DH5α cells [1] = test: Penetration efficiency of TAMRA-labeled CPPs, electroporation-based method, flow cytometry; settings: for Cell penetration efficiency (TAMRA fluorescence), Electrooration - Tris buffer / Cell penetration efficiency (TAMRA fluorescence), Electrooration - DW: electrocompetent E. coli DH5α, 5 μg TAMRA-CPP, electroporation 1.8 kV; for Cell penetration efficiency (TAMRA fluorescence), Electrooration - Tris buffer: 20 mM Tris-HCl pH 7.5, 1 h; for Cell penetration efficiency (TAMRA fluorescence), Electrooration - DW: distilled water, 1 h; for Penetration efficiency (TAMRA fluorescence in E. coli): library CPPs, electroporation, Tris buffer pH 7.5, 1 h, mean of n = 3–5
Description: (§1) (Fig. 2a). […] First, we prepared electrocompetent and chemically competent cells.

E. coli DH5α cells [2] = test: Inhibition of bacterial cell growth by CPPs (Max OD600 relative to control); settings: for Growth rate (%): E. coli growth with CPP, relative to control; for Max OD (%) (Figure 3f): E. coli DH5α diluted 1/1000 in LB, 5 μg TAMRA-CPP (0.1 μg/μL), OD600 monitored 18 h, max OD of treated cells / max OD of control cells; for Max OD (%): library CPPs, E. coli growth to stationary phase, relative to non-CPP-treated control, mean of n = 3
Protocol: E. coli DH5α cells were grown until OD600 = 1 at 37 °C with shaking at 200 rpm. […] Then, cell growth (OD600) was monitored for 18 h by using the Synergy^TM H1 hybrid multi-mode microplate reader (BioTek, Vermont, USA). As a control, we used E. coli cells that were not treated with CPPs.

E. coli DH5α cells [3] = test: Penetration efficiency of TAMRA-labeled CPPs, chemical (CaCl2) treatment method, flow cytometry; settings: for Cell penetration efficiency (TAMRA fluorescence), Chemical (CaCl2) method - Tris buffer / Cell penetration efficiency (TAMRA fluorescence), Chemical (CaCl2) method - DW: 50 mM CaCl2-treated E. coli DH5α, 5 μg TAMRA-CPP; for Cell penetration efficiency (TAMRA fluorescence), Chemical (CaCl2) method - Tris buffer: 20 mM Tris-Cl pH 7.5, 1 h; for Cell penetration efficiency (TAMRA fluorescence), Chemical (CaCl2) method - DW: 5 × 10^7 cells/50 μL, distilled water, 1 h; for Penetration efficiency (TAMRA FI): TAMRA fluorescence intensity in E. coli, library screen of 98 CPPs
Description: as §1

[4] = class (Cytotoxic / Safe), cutoff of 50%

Substance	Growth rate (%) (E. coli DH5α cells [2])	Penetration efficiency (TAMRA fluorescence in E. coli) (E. coli DH5α cells [1]) [A.U.]	Max OD (%) (Figure 3f) (E. coli DH5α cells [2]; replicate 1)	Max OD (%) (Figure 3f) (E. coli DH5α cells [2]; replicate 2)	Max OD (%) (Figure 3f) (E. coli DH5α cells [2]; replicate 3)	Anti-bacterial activity (E. coli DH5α cells [2]; [4])	Max OD (%) (E. coli DH5α cells [2])	also measured
Penetratin (RQIKIWFPNRRMKWKK; also: TAMRA label, site not given here) [CPP 17, TAMRA-labeled CPP of the 98-CPP library, one of five used to evaluate delivery methods]	56.8825	–	–	–	–	–	–	Cell penetration efficiency (TAMRA fluorescence), Electrooration - Tris buffer (E. coli DH5α cells [1]; replicate 1): 794.592 A.U.; Cell penetration efficiency (TAMRA fluorescence), Electrooration - Tris buffer (E. coli DH5α cells [1]; replicate 2): 585.819 A.U.; Cell penetration efficiency (TAMRA fluorescence), Electrooration - Tris buffer (E. coli DH5α cells [1]; replicate 3): 1028.54 A.U.; Cell penetration efficiency (TAMRA fluorescence), Electrooration - Tris buffer (E. coli DH5α cells [1]; replicate 4): 181.291 A.U.; Cell penetration efficiency (TAMRA fluorescence), Electrooration - DW (E. coli DH5α cells [1]; replicate 1): 634.038 A.U.; Cell penetration efficiency (TAMRA fluorescence), Electrooration - DW (E. coli DH5α cells [1]; replicate 2): 587.6 A.U.; Cell penetration efficiency (TAMRA fluorescence), Electrooration - DW (E. coli DH5α cells [1]; replicate 3): 471.96 A.U.; Anti-bacterial activity (E. coli DH5α cells [2]): Safe; Cell penetration efficiency (TAMRA fluorescence), Chemical (CaCl2) method - Tris buffer (E. coli DH5α cells [3]; replicate 1): 29.4497 A.U.; Cell penetration efficiency (TAMRA fluorescence), Chemical (CaCl2) method - Tris buffer (E. coli DH5α cells [3]; replicate 2): 24.3955 A.U.; Cell penetration efficiency (TAMRA fluorescence), Chemical (CaCl2) method - Tris buffer (E. coli DH5α cells [3]; replicate 3): 28.6202 A.U.; Cell penetration efficiency (TAMRA fluorescence), Chemical (CaCl2) method - DW (E. coli DH5α cells [3]; replicate 1): 134.244 A.U.; Cell penetration efficiency (TAMRA fluorescence), Chemical (CaCl2) method - DW (E. coli DH5α cells [3]; replicate 2): 173.67 A.U.; Cell penetration efficiency (TAMRA fluorescence), Chemical (CaCl2) method - DW (E. coli DH5α cells [3]; replicate 3): 170.238 A.U.; Penetration efficiency (TAMRA FI) (E. coli DH5α cells [3]): 647.56
TatsMTS (TMG) (GRKKRRQRRRMVSAL; also: TAMRA label, site not given here) [CPP 71, TAMRA-labeled CPP of the 98-CPP library]	80.7585	3266.3	73.904	87.9958	80.3758	Safe	80.8	–
Tat (GRKKRRQRRRPPQRKC; also: TAMRA label, site not given here) [CPP 67, TAMRA-labeled CPP of the 98-CPP library]	58.7683	2821.8	60.9603	54.071	61.2735	Safe	58.8	–
CTP (GGRRARRRRRR; also: TAMRA label, site not given here) [CPP 96, TAMRA-labeled CPP of the 98-CPP library]	85.4082	3688.0	80.7143	88.7755	86.7347	Safe	85.4	–
Tat48-57 (GRKKRRQRRR; also: TAMRA label, site not given here) [CPP 70, TAMRA-labeled CPP of the 98-CPP library]	80.8281	4043.3	81.1065	82.6722	78.7056	Safe	80.8	–
rrrrrrrrrcqcrrkn [CPP 80]	60.2773	–	65.3033	60	55.5286	Safe	–	Penetration efficiency (TAMRA FI) (E. coli DH5α cells [3]): 1432.29
Tat49-57 (RKKRRQRRR; also: TAMRA label, site not given here) [CPP 45, TAMRA-labeled CPP of the 98-CPP library]	69.5318	2837.5	75.4515	62.3077	70.8361	Safe	69.5	–
